One data set addresses PUF60 RRMs (human, UniProt Q9UHX1 118-316, C129S;C255A). Put plainly: fluorescence anisotropy; Kd1, two-site sequential model; FA: 50 mM Tris-HCl, 150 mM NaCl, 20 uM EDTA, pH 8.0, room temperature, 10 nM probe; EMSA: same buffer, 5 uM RNA, 5.5% native gel in 0.5X TBE at 4 C; crystals: 0.1 M Tris-HCl pH 8.7, 25% PEG 4000, 5-10 mM BaCl2, 20 C. The note with it: protein: recombinant; tags: His tag removed by TEV; chain copies: 2; label: 5'-fluorescein. (In general: In fluorescence polarisation assays a small probe gives low polarisation when free and higher when bound to something large.)

The target in data set [1] is T1, PUF60 RRMs+UHM (human, UniProt Q9UHX1 118-559, C129S;C255A;C487A). The data set is described as above. The note with it: protein: recombinant; tags: His tag removed by TEV; N-terminal GRGS left; chain copies: 2; label: 5'-fluorescein.
The target in the next data set is T2, SF1 1-260 (human, UniProt Q15637 1-260, C171A).
T2 sequence: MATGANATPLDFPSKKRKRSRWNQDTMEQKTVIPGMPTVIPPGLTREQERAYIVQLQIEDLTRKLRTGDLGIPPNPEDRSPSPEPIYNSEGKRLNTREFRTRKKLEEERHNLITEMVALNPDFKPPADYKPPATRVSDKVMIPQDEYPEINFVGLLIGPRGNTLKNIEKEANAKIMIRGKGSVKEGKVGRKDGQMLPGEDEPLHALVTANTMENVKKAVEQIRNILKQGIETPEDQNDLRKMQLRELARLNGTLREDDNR
As to the kind of experiment: EMSA; SF1 up to 40 uM, RNA 5 uM; FA: 50 mM Tris-HCl, 150 mM NaCl, 20 uM EDTA, pH 8.0, room temperature, 10 nM probe; EMSA: same buffer, 5 uM RNA, 5.5% native gel in 0.5X TBE at 4 C; crystals: 0.1 M Tris-HCl pH 8.7, 25% PEG 4000, 5-10 mM BaCl2, 20 C. The note with it: protein: recombinant; tags: His tag removed by TEV; N-terminal G left. (In general: In EMSA bound probe runs differently from free probe, usually more slowly.)

The target of the next data set is PUF60 RRMs+UHM;SF1 1-260 (human;human, UniProt Q9UHX1;Q15637 118-559;1-260, C129S;C255A;C487A|C171A). As to the kind of experiment: EMSA; further upward shift with both proteins, suggests ternary complex; FA: 50 mM Tris-HCl, 150 mM NaCl, 20 uM EDTA, pH 8.0, room temperature, 10 nM probe; EMSA: same buffer, 5 uM RNA, 5.5% native gel in 0.5X TBE at 4 C; crystals: 0.1 M Tris-HCl pH 8.7, 25% PEG 4000, 5-10 mM BaCl2, 20 C. The note with it: protein: recombinant;recombinant; tags: His tag removed by TEV; N-terminal GRGS left;His tag removed by TEV; N-terminal G left; chain copies: 2;1.

Data set [2] addresses T1, PUF60 RRMs+UHM. As to the kind of experiment: EMSA; two conformations at 20 uM PUF60; RNA 5 uM; FA: 50 mM Tris-HCl, 150 mM NaCl, 20 uM EDTA, pH 8.0, room temperature, 10 nM probe; EMSA: same buffer, 5 uM RNA, 5.5% native gel in 0.5X TBE at 4 C; crystals: 0.1 M Tris-HCl pH 8.7, 25% PEG 4000, 5-10 mM BaCl2, 20 C. The note with it: protein: recombinant; tags: His tag removed by TEV; N-terminal GRGS left; chain copies: 2.

In general, Kd refers to a measure of binding affinity in units of concentration.

T1 sequence (Q9UHX1 118-559 C129S/C255A/C487A): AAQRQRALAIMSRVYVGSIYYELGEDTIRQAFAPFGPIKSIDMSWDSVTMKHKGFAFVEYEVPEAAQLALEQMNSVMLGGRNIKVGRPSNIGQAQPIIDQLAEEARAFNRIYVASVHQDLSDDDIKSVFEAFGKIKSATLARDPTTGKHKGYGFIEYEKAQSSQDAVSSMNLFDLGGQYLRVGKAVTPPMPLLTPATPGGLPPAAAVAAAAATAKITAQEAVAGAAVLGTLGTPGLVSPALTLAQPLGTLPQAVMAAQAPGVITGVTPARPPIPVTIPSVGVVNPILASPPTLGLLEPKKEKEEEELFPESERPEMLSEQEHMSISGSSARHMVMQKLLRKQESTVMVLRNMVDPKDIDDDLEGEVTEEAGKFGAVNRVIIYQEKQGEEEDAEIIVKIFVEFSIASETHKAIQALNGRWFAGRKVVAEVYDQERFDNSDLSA
PUF60 RRMs+UHM;SF1 1-260, sequence (Q9UHX1 118-559 C129S/C255A/C487A, one chain of several): as the sequence (Q9UHX1 118-559 C129S/C255A/C487A) above
PUF60 RRMs, sequence (Q9UHX1 118-316 C129S/C255A): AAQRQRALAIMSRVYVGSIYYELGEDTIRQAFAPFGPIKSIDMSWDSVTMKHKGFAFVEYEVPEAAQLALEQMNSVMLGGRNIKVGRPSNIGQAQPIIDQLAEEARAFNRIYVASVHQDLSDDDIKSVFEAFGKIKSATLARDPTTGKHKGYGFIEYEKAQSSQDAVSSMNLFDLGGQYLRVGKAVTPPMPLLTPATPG

As for GAUGUCAUACUUAUCCUGUCCCUUUUUUUU (ssDNA, deoxyribose backbone with A, U, C, G bases (dU)) [*AdML3'], the Kd with PUF60 RRMs is 3.64 ± 3.6 µM; with PUF60 RRMs+UHM [1], 4.61 ± 1.19 µM.
Consider GAUGUCAUACUUAUCCUGUCCCUUUUUUUU (ssRNA) [AdML3' RNA], for which the binding result with SF1 1-260, with PUF60 RRMs+UHM;SF1 1-260 and with PUF60 RRMs+UHM [2] was “binds” in each case.

(Values after paper PMC7703929, “Unraveling the mechanism of recognition of the 3’ splice site of the adenovirus major late promoter intron by the alternative splicing factor PUF60”.)
